This passage reports coupling with G11, percent of wild type (fig. S10) (% of wild type) and coupling to GoA, percent of wild type (fig. S10) (% of wild type) results from publication PMC7034192.

The target in one assay is M1R L131A (UniProt P11229).
A further assay has as its target M2R L129A (UniProt P08172).
Sequence of UniProt P08172 (P08172 whole entry L129A): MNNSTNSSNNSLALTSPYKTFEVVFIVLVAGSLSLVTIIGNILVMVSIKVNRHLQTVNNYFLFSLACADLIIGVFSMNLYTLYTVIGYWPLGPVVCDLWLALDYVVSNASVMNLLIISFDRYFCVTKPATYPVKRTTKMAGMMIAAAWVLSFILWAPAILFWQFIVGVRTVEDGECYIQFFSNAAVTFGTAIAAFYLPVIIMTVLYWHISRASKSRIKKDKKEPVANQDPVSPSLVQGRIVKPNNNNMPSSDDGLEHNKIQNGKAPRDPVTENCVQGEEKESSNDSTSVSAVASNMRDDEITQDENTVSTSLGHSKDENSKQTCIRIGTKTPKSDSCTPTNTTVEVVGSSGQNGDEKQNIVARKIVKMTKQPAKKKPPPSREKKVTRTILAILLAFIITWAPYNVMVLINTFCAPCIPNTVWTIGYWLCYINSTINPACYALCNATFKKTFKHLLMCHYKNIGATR

In the assay with M1R L131A, “G_(11iN) heterotrimer (Gα_(11iN), Gβ1, Gγ2) (from UniProt P63096 1-29; P29992 36-359; P62873 2-340; P59768 1-71) (complex)” came in with a coupling with G11, percent of wild type (fig. S10) (% of wild type) of 17. “G_(oAiN) heterotrimer (Gα_(oAiN), Gβ1, Gγ2) (from UniProt P09471 1-354; P62873 2-340; P59768 1-71) (complex)” displayed a coupling to GoA, percent of wild type (fig. S10) (% of wild type) with M2R L129A of 49.
